Experimental data: the Human Domainome abundance scans (Beltran et al. 2025)
± gives the uncertainty stated by the source.

B1: Protein S100-G, residues 1 to 79; numbered along this chain, P02633 (parent)
chain: MSAKKSPEELKGIFEKYAAKEGDPNQLSKEELKLLLQTEFPSLLKGPSTLDELFEELDKNGDGEVSFEEFQVLVKKISQ
B2: WW domain-containing transcription regulator protein 1, residues 116 to 162; numbered along this chain, Q9GZV5 (parent)
chain: QSYDVTDELPLPPGWEMTFTATGQRYFLNHIEKITTWQDPRKAMNQP

Variants of: B1
Experiment: abundance fitness (aPCA) (normalised: wild type 0, dead -1); higher = more abundant; growth selection in yeast, the domain comes from the species named
Settings: Bos taurus

Variant	abundance fitness
MSAKKSPEELKGIFEKYAAKEGDPNQLSKEELKLLLQTEFPSLLKGPSTLDELFEELDKNGDGEVSFEEFQVLVKKIST	0.085 ± 0.078
MSAKKSPEELKGIFEKYAAKEGDPNQLSKEELKLLLQTEFPSLLKGPSTLDELFEELDKNGDGEVSFEEFQVLVKKISY	-0.148 ± 0.11
MSAKKSPEELKGIFEKYAAKEGDPNQLSKEELKLLLQTEFPSLLKGPSTLDELFEELDKNGDGEVSFEEFQVLVKKISV	-0.086 ± 0.1
MSAKKSPEELKGIFEKYAAKEGDPNQLSKEELKLLLQTEFPSLLKGPSTLDELFEELDKNGDGEVSFEEFQVLVKKISS	0.041 ± 0.072
MSAKKSPEELKGIFEKYAAKEGDPNQLSKEELKLLLQTEFPSLLKGPSTLDELFEELDKNGDGEVSFEEFQVLVKKISW	-0.086 ± 0.15

Variants of: B2
Experiment: as above
Settings: Homo sapiens

Variant	abundance fitness
L9A	0.044 ± 0.039
L9N	-0.009 ± 0.048
L9E	-0.028 ± 0.034
L9T	0.117 ± 0.045
L9R	0.027 ± 0.029
L9Y	-0.035 ± 0.037
L9V	0.05 ± 0.034
L9S	-0.003 ± 0.038
L9D	0.028 ± 0.025
L9C	-0.103 ± 0.04
L9G	-0.027 ± 0.03
L9F	-0.082 ± 0.041
L9Q	0.022 ± 0.046
L9H	-0.043 ± 0.049
L9W	-0.087 ± 0.032
L9P	-0.001 ± 0.047
L9K	-0.064 ± 0.048
L9I	0.022 ± 0.05
L9M	-0.009 ± 0.029
D4C	0.049 ± 0.045
D4Q	-0.404 ± 0.053
D4K	-0.014 ± 0.043
D4I	-0.189 ± 0.063
D4A	-0.083 ± 0.035

Variant	abundance fitness
D4P	-0.071 ± 0.051
D4G	-0.198 ± 0.036
D4E	-0.072 ± 0.043
D4Y	0.048 ± 0.057
D4F	-0.152 ± 0.062
D4R	-0.151 ± 0.025
D4L	-0.147 ± 0.031
D4N	0.053 ± 0.033
D4W	-0.381 ± 0.059
D4H	-0.207 ± 0.061
D4T	-0.162 ± 0.048
D4S	-0.089 ± 0.039
F19G	-0.425 ± 0.027
F19H	-0.385 ± 0.13
F19I	0.023 ± 0.065
F19C	-0.274 ± 0.066
F19E	-0.017 ± 0.03
F19A	-0.06 ± 0.03
F19D	-0.319 ± 0.046
F19K	-0.047 ± 0.045
M17H	-0.44 ± 0.05
M17L	-0.067 ± 0.031
M17W	-0.369 ± 0.026
M17K	-0.214 ± 0.047

Variant	abundance fitness
M17P	-0.345 ± 0.037
M17C	-0.035 ± 0.032
M17G	-0.366 ± 0.026
M17D	-0.414 ± 0.046
M17T	-0.094 ± 0.037
M17F	-0.172 ± 0.036
M17V	-0.05 ± 0.024
M17R	-0.279 ± 0.026
M17S	-0.102 ± 0.026
M17N	-0.582 ± 0.046
M17Q	0.037 ± 0.044
M17I	-0.09 ± 0.044
M17E	0.017 ± 0.028
M17Y	-0.264 ± 0.044
T6V	-0.06 ± 0.026
T6F	-0.074 ± 0.052
T6I	-0.032 ± 0.046
T6N	-0.198 ± 0.06
T6S	-0.03 ± 0.036
T6Y	-0.189 ± 0.054
T6R	-0.086 ± 0.031
T6Q	-0.142 ± 0.044
T6D	-0.104 ± 0.044
T6M	-0.008 ± 0.035

Variant	abundance fitness
T6E	-0.216 ± 0.041
T6A	-0.196 ± 0.037
T6P	-0.013 ± 0.045
T6H	-0.352 ± 0.067
T6L	-0.104 ± 0.029
T6C	-0.071 ± 0.056
E8K	-0.005 ± 0.041
E8C	-0.163 ± 0.057
E8D	-0.084 ± 0.056
E8G	-0.07 ± 0.03
E8I	-0.274 ± 0.087
E8P	-0.09 ± 0.039
E8R	-0.109 ± 0.04
E8N	-0.128 ± 0.056
E8W	-0.78 ± 0.062
E8F	-0.302 ± 0.066
E8T	0.01 ± 0.047
E8Y	-0.248 ± 0.067
E8V	-0.118 ± 0.035
E8S	-0.071 ± 0.039
E8M	0.065 ± 0.055
E8L	-0.253 ± 0.041
E8A	-0.027 ± 0.026
P12L	-0.738 ± 0.048

Variant	abundance fitness
P12E	-0.601 ± 0.062
P12I	-0.873 ± 0.2
P12C	-0.716 ± 0.083
P12N	-0.556 ± 0.083
P12T	-0.758 ± 0.076
P12F	-0.997 ± 0.15
P12M	-0.862 ± 0.085
P12D	-0.604 ± 0.058
P12A	-0.467 ± 0.041
P12K	-0.782 ± 0.089
P12R	-0.692 ± 0.045
P12Y	-0.61 ± 0.062
P12H	-0.907 ± 0.24
P12V	-0.921 ± 0.091
P12Q	-0.494 ± 0.12
P12G	-0.49 ± 0.041
P12W	-0.826 ± 0.073
P10H	-0.181 ± 0.053
P10G	-0.12 ± 0.028
P10T	-0.045 ± 0.035
P10N	-0.129 ± 0.032
P10W	-0.393 ± 0.037
P10I	-0.174 ± 0.03
P10C	-0.374 ± 0.044

Variant	abundance fitness
P10R	-0.224 ± 0.028
P10Y	-0.351 ± 0.042
P10F	-0.342 ± 0.038
P10M	-0.212 ± 0.036
P10L	-0.25 ± 0.024
P10Q	-0.123 ± 0.048
P10D	-0.083 ± 0.043
P10S	-0.109 ± 0.025
P10K	-0.115 ± 0.035
P10E	-0.058 ± 0.027
P10A	-0.088 ± 0.027
P10V	-0.188 ± 0.028
Y3M	0.182 ± 0.11
Y3H	0.013 ± 0.14
Y3P	0.087 ± 0.28
Y3I	0.274 ± 0.13
Y3Q	-0.2 ± 0.031
Y3V	-0.472 ± 0.48
Y3C	0.262 ± 0.1
Y3L	-0.323 ± 0.48
G14N	-0.071 ± 0.043
G14P	-0.378 ± 0.043
G14D	-0.259 ± 0.032
G14I	-1 ± 0.12

Variant	abundance fitness
G14Q	-0.467 ± 0.048
G14E	-0.21 ± 0.037
G14Y	-0.421 ± 0.028
G14C	-0.475 ± 0.042
G14S	-0.379 ± 0.036
G14L	-0.823 ± 0.029
G14F	-0.534 ± 0.054
G14R	-0.583 ± 0.036
G14W	-0.491 ± 0.036
G14V	-0.748 ± 0.037
G14M	-0.505 ± 0.026
G14A	-0.365 ± 0.027
G14K	-0.466 ± 0.027
P13L	-0.124 ± 0.034
P13K	-0.084 ± 0.04
P13C	-0.222 ± 0.044
P13T	-0.072 ± 0.045
P13S	-0.067 ± 0.024
P13E	-0.043 ± 0.039
P13V	-0.058 ± 0.029
P13M	-0.168 ± 0.04
P13R	-0.082 ± 0.028
P13I	-0.18 ± 0.05
P13F	-0.093 ± 0.047

Variant	abundance fitness
P13N	-0.022 ± 0.052
P13Y	-0.112 ± 0.051
P13W	-0.245 ± 0.04
P13G	-0.136 ± 0.025
P13Q	0.026 ± 0.037
P13H	-0.014 ± 0.03
P13A	-0.043 ± 0.032
P13D	-0.012 ± 0.043
W15A	-0.913 ± 0.08
W15H	-0.876 ± 0.17
W15S	-0.686 ± 0.026
W15C	-0.627 ± 0.03
W15F	-0.311 ± 0.055
W15I	-0.802 ± 0.094
W15P	-1.09 ± 0.15
W15R	-0.625 ± 0.029
W15Q	-0.5 ± 0.071
W15N	-0.616 ± 0.028
W15L	-0.89 ± 0.046
W15T	-0.753 ± 0.067
W15V	-0.69 ± 0.054
W15D	-0.532 ± 0.054
W15K	-0.784 ± 0.076
W15E	-0.689 ± 0.076

Variant	abundance fitness
W15G	-0.636 ± 0.048
W15M	-0.695 ± 0.039
W15Y	-0.351 ± 0.063
D7A	-0.049 ± 0.027
D7M	-0.185 ± 0.049
D7E	-0.314 ± 0.05
D7K	-0.041 ± 0.039
D7F	-0.312 ± 0.033
D7W	-0.45 ± 0.047
D7T	-0.065 ± 0.056
D7Y	-0.268 ± 0.049
D7R	-0.166 ± 0.041
D7S	-0.104 ± 0.038
D7G	-0.154 ± 0.035
D7C	-0.202 ± 0.05
D7H	0.053 ± 0.055
D7Q	-0.178 ± 0.053
D7N	-0.041 ± 0.032
D7I	-0.195 ± 0.055
D7V	-0.207 ± 0.035
Q1M	0.26 ± 0.1
Q1E	-0.182 ± 0.062
Q1V	-0.45 ± 0.09
Q1G	-0.163 ± 0.059

Variant	abundance fitness
Q1Y	-0.132 ± 0.13
Q1I	0.001 ± 0.38
Q1H	-0.704 ± 0.32
Q1A	-0.519 ± 0.15
Q1D	-0.005 ± 0.069
Q1T	-0.492 ± 0.18
Q1R	-0.365 ± 0.065
S2V	-0.148 ± 0.044
S2K	-0.074 ± 0.065
S2W	-0.406 ± 0.062
S2N	0.361 ± 0.081
S2P	-0.45 ± 0.066
S2I	-0.026 ± 0.071
S2Y	-0.226 ± 0.07
S2F	-0.035 ± 0.055
S2C	-0.192 ± 0.043
S2A	-0.255 ± 0.04
S2L	-0.093 ± 0.04
S2E	-0.274 ± 0.055
S2H	0.149 ± 0.32
S2M	-0.017 ± 0.033
S2G	-0.034 ± 0.027
S2Q	-0.167 ± 0.065
S2D	0.057 ± 0.03

Variant	abundance fitness
S2T	-0.092 ± 0.05
L11T	-0.548 ± 0.042
L11P	-0.556 ± 0.044
L11Q	-0.684 ± 0.075
L11R	-0.847 ± 0.03
L11F	-0.08 ± 0.038
L11K	-0.746 ± 0.086
L11V	-0.381 ± 0.033
L11C	-0.432 ± 0.049
L11Y	-0.493 ± 0.049
L11W	-0.686 ± 0.033
L11E	-0.767 ± 0.068
L11A	-0.715 ± 0.038
L11M	-0.07 ± 0.038
L11D	-0.732 ± 0.048
L11N	-0.789 ± 0.13
L11S	-0.609 ± 0.035
L11G	-0.731 ± 0.029
L11I	-0.337 ± 0.04
L11H	-0.676 ± 0.081
T18W	-0.245 ± 0.036
T18V	-0.035 ± 0.035
T18Q	0.045 ± 0.051
T18E	-0.064 ± 0.03

Variant	abundance fitness
T18A	0.023 ± 0.037
T18G	0.018 ± 0.028
T18D	-0.018 ± 0.034
T18R	0.094 ± 0.031
T18Y	-0.086 ± 0.051
T18M	-0.056 ± 0.046
T18S	0.05 ± 0.034
T18N	-0.159 ± 0.053
T18C	-0.009 ± 0.036
T18K	0.097 ± 0.031
T18P	-0.85 ± 0.081
T18L	-0.047 ± 0.037
V5L	-0.103 ± 0.025
V5Y	-0.354 ± 0.081
V5Q	-0.145 ± 0.046
V5G	-0.194 ± 0.03
V5E	-0.088 ± 0.042
V5R	-0.111 ± 0.035
V5C	-0.126 ± 0.032
V5N	-0.033 ± 0.049
V5S	-0.053 ± 0.032
V5I	0.029 ± 0.036
V5A	-0.088 ± 0.036
V5M	-0.026 ± 0.035

Variant	abundance fitness
V5H	-0.231 ± 0.059
V5T	0.011 ± 0.044
V5K	-0.023 ± 0.038
V5P	-0.224 ± 0.048
E16F	-0.326 ± 0.046
E16R	-0.365 ± 0.027
E16A	-0.217 ± 0.047
E16V	-0.193 ± 0.027
E16Y	-0.78 ± 0.13
E16D	-0.039 ± 0.05
E16W	-0.389 ± 0.06
E16I	-0.266 ± 0.028
E16T	-0.215 ± 0.037
E16C	-0.28 ± 0.051
E16N	-0.58 ± 0.091
E16H	-0.684 ± 0.12
E16Q	-0.035 ± 0.069
E16L	-0.364 ± 0.046
E16P	-0.864 ± 0.085
E16G	-0.22 ± 0.03
E16S	-0.081 ± 0.027
E16M	-0.387 ± 0.038
